Patent US20090311265A1

Biological target: HA of BPL-inactivated virus preparation of strain A/New Caledonia/20/99 (H1N1) (influenza A virus A/New Caledonia/20/99 (H1N1))
Test: ELISA, coated inactivated virus, IgG 5 µg/ml

Substance | OD 492 nm
CR6261 (antibody) | 1.46 OD 492 nm
CR3014 (antibody) | 0.09 OD 492 nm
